Source: US20140303084
Where a chain is given by its changes, count along the chain named.

What was measured:
Ac-K-k-MeLeu-TCLASYCWLF = tested on: T1, Ac-K-k-MeLeu-TCLASYCWLF
T1 sequence: KKLTCLASYCWLF

[1] = tested on: T2, C(PEG5K)GGGLVPRGGG-RRAPGKLT-Asp-LASY-Lys-WLFWTGIA
T2 sequence: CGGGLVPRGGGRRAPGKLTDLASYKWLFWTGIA

CRRAPGKLQCLASYCWLFWTGIAC = tested on: T3, CRRAPGKLQCLASYCWLFWTGIAC
T3 sequence: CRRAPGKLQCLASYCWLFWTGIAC

ERYRLDMTCMASQCWQFPPAAG = tested on: T4, ERYRLDMTCMASQCWQFPPAAG
T4 sequence: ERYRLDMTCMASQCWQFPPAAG

FGQPSRLTCLASYCWLFGNLVT = tested on: T5, FGQPSRLTCLASYCWLFGNLVT
T5 sequence: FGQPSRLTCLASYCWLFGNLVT

GVEDRQLTCLASSCWVFSRHSV = tested on: T6, GVEDRQLTCLASSCWVFSRHSV
T6 sequence: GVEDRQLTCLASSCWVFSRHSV

HQQRRKLTCLAGYCWLFVLGPS = tested on: T7, HQQRRKLTCLAGYCWLFVLGPS
T7 sequence: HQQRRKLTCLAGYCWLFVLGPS

KGAYQKLTCLASYCLLFLLTAQ = tested on: T8, KGAYQKLTCLASYCLLFLLTAQ
T8 sequence: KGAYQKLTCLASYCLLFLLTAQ

KKLTCLASYCWLF = tested on: T9, KKLTCLASYCWLF
T9 sequence: KKLTCLASYCWLF

KLQCLASYCWLFWTGIA = tested on: T10, KLQCLASYCWLFWTGIA
T10 sequence: KLQCLASYCWLFWTGIA

KLT-Glu-LASY-Orn-WLF = tested on: T11, KLT-Glu-LASY-Orn-WLF
T11 sequence: KLTELASYXWLF

[2] = tested on: T12, KLT-Orn-LASY-Glu-WLF-CONH2
T12 sequence: KLTXLASYEWLF

KLTCLASQCWLF = tested on: T13, KLTCLASQCWLF
T13 sequence: KLTCLASQCWLF

KLTCLASYCWL-MePhe = tested on: T14, KLTCLASYCWL-MePhe
T14 sequence: KLTCLASYCWLF

KLTCLASYcWLF = tested on: T15, KLTCLASYcWLF
T15 sequence: KLTCLASYCWLF

KLTCLGSYCWLF = tested on: T16, KLTCLGSYCWLF
T16 sequence: KLTCLGSYCWLF

MeLys-LTCLASYCWLF = tested on: T17, MeLys-LTCLASYCWLF
T17 sequence: KLTCLASYCWLF

[3] = tested on: T18, PQTRDPSSRD RRAPG KLTCLASYCWLFWTGIA
T18 sequence: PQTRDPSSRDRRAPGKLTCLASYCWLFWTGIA

[4] = tested on: T19, PRIRTVGPGSRSASGKLTCLASYCWLFFTGIA
T19 sequence: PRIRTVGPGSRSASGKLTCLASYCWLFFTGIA

[5] = tested on: T20, PRIRTVGPGSRSASGKLTCLASYCWLFWSGIA
T20 sequence: T19 sequence with F28W, T29S

[6] = tested on: T21, PRIRTVGPGSRSASGKLTCSASYCWLFWTGIA
T21 sequence: T19 sequence with L20S, F28W

[7] = tested on: T22, PRIRTVGPGSRSASGKSTCLASYCWLFWTGIA
T22 sequence: T19 sequence with L17S, F28W

[8] = tested on: T23, PRIRTVSPGSRSASGKLTCLASYCWLFWTGIA
T23 sequence: T19 sequence with G7S, F28W

[9] = tested on: T24, QWQIAGQVLKRRAPA KLTCLASYCWLFWTGIA
T24 sequence: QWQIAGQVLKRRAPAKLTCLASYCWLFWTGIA

[10] = tested on: T25, RRAPGCLTALASYCWLFWTGIA-CONH2
T25 sequence: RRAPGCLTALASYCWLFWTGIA

RRAPGKLQCLASYCWLFWTGIK = tested on: T26, RRAPGKLQCLASYCWLFWTGIK
T26 sequence: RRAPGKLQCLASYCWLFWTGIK

[11] = tested on: T27, RRAPGKLT-Lys-LASY-Asp-WLFWTGIA-COOH
T27 sequence: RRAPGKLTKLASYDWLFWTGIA

[12] = tested on: T28, RRAPGKLTCLASYCWLF STPVA RKSLRRHQPT
T28 sequence: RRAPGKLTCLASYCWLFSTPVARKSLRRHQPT

[13] = tested on: T29, RRAPGKLTCLASYCWLF VTGTA HAPRVAPAPA
T29 sequence: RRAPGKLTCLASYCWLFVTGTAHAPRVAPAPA

[14] = tested on: T30, RRAPGKLTCLASYCWLF WAGFA ASTLAPAHHQ
T30 sequence: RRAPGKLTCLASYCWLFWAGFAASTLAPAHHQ

[15] = tested on: T31, RRAPGKLTCLASYCWLF WTGFA FRVGLASSLY
T31 sequence: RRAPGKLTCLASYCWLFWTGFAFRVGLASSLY

[16] = tested on: T32, RRAPGKLTCLASYCWLF WTGIA RWPSHRSGPS
T32 sequence: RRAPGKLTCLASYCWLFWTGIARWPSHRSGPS

[17] = tested on: T33, RRAPGKLTCLASYCWLF WTGLL DYPTPQSHEP
T33 sequence: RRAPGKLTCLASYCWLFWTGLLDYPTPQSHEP

[18] = tested on: T34, RRAPGKLTCLASYCWLF WTTYA SYATKPADTT
T34 sequence: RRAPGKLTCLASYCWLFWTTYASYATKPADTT

[19] = tested on: T35, RRAPGKLTCLASYCWLFWTGIA-PEG4
T35 sequence: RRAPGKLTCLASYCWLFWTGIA

RRAPGKLTCLASYCWlFWTGIA [20] = tested on: T36, RRAPGKLTCLASYCWlFWTGIA
T36 sequence: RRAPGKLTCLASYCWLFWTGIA

RRAPGKLTCLASYCwLFWTGIA [21] = tested on: T37, RRAPGKLTCLASYCwLFWTGIA
T37 sequence: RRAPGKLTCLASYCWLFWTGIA

RRAPGKLTClASYCWLFWTGIA [22] = tested on: T38, RRAPGKLTClASYCWLFWTGIA
T38 sequence: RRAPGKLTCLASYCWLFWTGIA

RRAPGKLtCLASYCWLFWTGIA [23] = tested on: T39, RRAPGKLtCLASYCWLFWTGIA
T39 sequence: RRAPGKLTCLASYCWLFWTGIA

RRAPGkLTCLASYCWLFWTGIA [24] = tested on: T40, RRAPGkLTCLASYCWLFWTGIA
T40 sequence: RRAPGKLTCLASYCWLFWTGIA

[25] = tested on: T41, RSHSLDRMAG RRAPG KLTCLASYCWLFWTGIA
T41 sequence: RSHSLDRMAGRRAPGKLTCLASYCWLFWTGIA

RYQRARLTCLASYCGLLFSMSA = tested on: T42, RYQRARLTCLASYCGLLFSMSA
T42 sequence: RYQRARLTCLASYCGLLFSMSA

[26] = tested on: T43, SAQGRPISPDrRAAGKLTCLASYCWLFWTGIA
T43 sequence: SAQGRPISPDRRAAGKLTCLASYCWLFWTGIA

SGRGGKLTCQASFCQLFGNGLS = tested on: T44, SGRGGKLTCQASFCQLFGNGLS
T44 sequence: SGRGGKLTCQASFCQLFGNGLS

[27] = tested on: T45, SKQGAPISPDrRAAGKLTCLASYCWLFWTGIA
T45 sequence: T43 sequence with A2K, R5A

[28] = tested on: T46, SKQGRPISPDrRAAGKLTCLASYCWLFWTG
T46 sequence: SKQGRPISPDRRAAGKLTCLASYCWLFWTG

[29] = tested on: T47, SKQGRPISPDrRAAGKLTCLASYCWLFWT
T47 sequence: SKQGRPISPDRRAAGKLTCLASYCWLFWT

[30] = tested on: T48, SKQGRPISPDrRAAGKLTCLaSYCWLFWTGIA
T48 sequence: T43 sequence with A2K

Question: Which Vmax, FXa generation assay (Ac-K-k-MeLeu-TCLASYCWLF) does the source give for human Factor IXa here?
Answer: > 2

Question: And the “Vmax, FXa generation assay; (++) means 1-2” value (“Vmax … (++) means 1-2” for short) [1]?
Answer: (++)

Question: And the Vmax, FXa generation assay (CRRAPGKLQCLASYCWLFWTGIAC)?
Answer: > 2

Question: What about the “Vmax … (++) means 1-2” value (ERYRLDMTCMASQCWQFPPAAG) of the same substance?
Answer: (++)

Question: And the “Vmax … (++) means 1-2” value (FGQPSRLTCLASYCWLFGNLVT)?
Answer: (++)

Question: What about the “Vmax … (++) means 1-2” value (GVEDRQLTCLASSCWVFSRHSV) of the same substance?
Answer: (++)

Question: And the Vmax, FXa generation assay (HQQRRKLTCLAGYCWLFVLGPS)?
Answer: > 2

Question: And the “Vmax … (++) means 1-2” value (KGAYQKLTCLASYCLLFLLTAQ)?
Answer: (++)

Question: What about the Vmax, FXa generation assay (KKLTCLASYCWLF) of the same substance?
Answer: > 3

Question: What about the Vmax, FXa generation assay (KLQCLASYCWLFWTGIA) of the same substance?
Answer: > 2

Question: What about the “Vmax … (++) means 1-2” value (KLT-Glu-LASY-Orn-WLF) of the same substance?
Answer: (++)

Question: What about the “Vmax … (++) means 1-2” value [2] of the same substance?
Answer: (++)

Question: And the Vmax, FXa generation assay (KLTCLASQCWLF)?
Answer: > 2

Question: What about the “Vmax … (++) means 1-2” value (KLTCLASYCWL-MePhe) of the same substance?
Answer: (++)

Question: And the Vmax, FXa generation assay (KLTCLASYcWLF)?
Answer: > 3

Question: And the Vmax, FXa generation assay (KLTCLGSYCWLF)?
Answer: > 2

Question: What about the “Vmax … (++) means 1-2” value (MeLys-LTCLASYCWLF) of the same substance?
Answer: (++)

Question: What about the Vmax, FXa generation assay [3] of the same substance?
Answer: > 3

Question: What about the Vmax, FXa generation assay [4] of the same substance?
Answer: > 3

Question: What about the Vmax, FXa generation assay [5] of the same substance?
Answer: > 3

Question: What about the “Vmax … (++) means 1-2” value [6] of the same substance?
Answer: (++)

Question: What about the Vmax, FXa generation assay [7] of the same substance?
Answer: > 3

Question: What about the Vmax, FXa generation assay [8] of the same substance?
Answer: > 3

Question: And the Vmax, FXa generation assay [9]?
Answer: > 2

Question: What about the “Vmax … (++) means 1-2” value [10] of the same substance?
Answer: (++)

Question: What about the “Vmax … (++) means 1-2” value (RRAPGKLQCLASYCWLFWTGIK) of the same substance?
Answer: (++)

Question: And the Vmax, FXa generation assay [11]?
Answer: > 0.5

Question: And the Vmax, FXa generation assay [12]?
Answer: > 3

Question: What about the Vmax, FXa generation assay [13] of the same substance?
Answer: > 3

Question: What about the Vmax, FXa generation assay [14] of the same substance?
Answer: > 2

Question: What about the Vmax, FXa generation assay [15] of the same substance?
Answer: > 3

Question: What about the “Vmax … (++) means 1-2” value [16] of the same substance?
Answer: (++)

Question: What about the Vmax, FXa generation assay [17] of the same substance?
Answer: > 2

Question: What about the Vmax, FXa generation assay [18] of the same substance?
Answer: > 2

Question: What about the Vmax, FXa generation assay [19] of the same substance?
Answer: > 2

Question: What about the “Vmax … (++) means 1-2” value (RRAPGKLTCLASYCWlFWTGIA [20]) of the same substance?
Answer: (++)

Question: What about the Vmax, FXa generation assay (RRAPGKLTCLASYCwLFWTGIA [21]) of the same substance?
Answer: > 2

Question: And the “Vmax … (++) means 1-2” value (RRAPGKLTClASYCWLFWTGIA [22])?
Answer: (++)

Question: And the “Vmax … (++) means 1-2” value (RRAPGKLtCLASYCWLFWTGIA [23])?
Answer: (++)

Question: What about the Vmax, FXa generation assay (RRAPGkLTCLASYCWLFWTGIA [24]) of the same substance?
Answer: > 2

Question: And the Vmax, FXa generation assay [25]?
Answer: > 3

Question: And the Vmax, FXa generation assay (RYQRARLTCLASYCGLLFSMSA)?
Answer: > 0.5

Question: And the Vmax, FXa generation assay [26]?
Answer: > 2

Question: And the “Vmax … (++) means 1-2” value (SGRGGKLTCQASFCQLFGNGLS)?
Answer: (++)

Question: And the Vmax, FXa generation assay [27]?
Answer: > 3

Question: What about the Vmax, FXa generation assay [28] of the same substance?
Answer: > 2

Question: And the Vmax, FXa generation assay [29]?
Answer: > 2

Question: What about the Vmax, FXa generation assay [30] of the same substance?
Answer: > 0.5
